Assay results reported in paper PMC5020537, “A lack of peptide binding and decreased thermostability suggests that the CASKIN2 scaffolding protein SH3 domain may be vestigial” (BMC Structural Biology, 2016).
Several values for one entry are separate records, joined by “and”; a condition that tells them apart may be missing. Equal values may be shown once.

Legend:
[1] = molecular target: T1, human CASKIN2 SH3 domain (aa. 284-348), wild type (human, UniProt Q8WXE0 284-348); assay: other fluorescence titration; peptide titrated into 1 μM SH3 domain; 10 mM Tris-HCl, pH 7.5, 150 mM NaCl, 0.05 % sodium azide; intrinsic tryptophan fluorescence, excitation 280 nm, emission 340 nm; fitted to a 1:1 protein to peptide complex; settings: both partners purified
T1 construct: CASKIN2, human, SH3 domain, residues 284-348, UniProt Q8WXE0; Cloned into BamHI/XhoI of pGEX4T2; Isotopically labelled (15N and/or 13C) for NMR; also called wild type CASKIN2 SH3 domain; WT
T1 sequence (Q8WXE0 284-348): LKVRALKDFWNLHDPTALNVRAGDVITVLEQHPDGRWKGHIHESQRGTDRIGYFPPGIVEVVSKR

[2] = molecular target: T2, CASKIN2 SH3 domain SH3-6x mutant (K290Y, H296E, A300E, R319W, Y336L, I341F) (human, UniProt Q8WXE0 284-348, K290Y | H296E | A300E | R319W | Y336L | I341F); assay: as above; settings: both partners purified
T2 construct: Made by Quikchange from the wild type construct; PDB 2KE9 is the wild type parent; also called 6x CASKIN-SH3 domain mutant
T2 sequence (Q8WXE0 284-348 K290Y/H296E/A300E/R319W/Y336L/I341F): as the sequence (Q8WXE0 284-348) above, with K7Y, H13E, A17E, R36W, Y53L, I58F counted along it

- Kd [1]: 39000 ± 6000 nM
- Kd [2]: 460 nM and 220 nM
B1: UBPY peptide YTPMVRENKPP (peptide)
peptide: YTPMVRENKPP
notes: peptide derived from the protein UBPY, corresponding to the UBPY ligand in the STAM2 SH3 domain structure PDB 1UJ0; contains an RxxKP motif; also called Class-III UBPY peptide; STAM2 ligand; source: synthetic peptide (Canpeptide, Montreal; > 90 % purity)
